{"source": "patent US20040028672", "system": "LL-37", "data": [{"substance": "Pseudomonas aeruginosa elastase", "values": [{"measurement": "degradation of LL-37 (SDS-PAGE) and loss of bactericidal activity against E. faecalis", "result": "LL-37 is degraded and inactivated by P. aeruginosa elastase"}]}]}
